Measurements from patent US20220064331A1 (Genentech, published 2022).

B1: 14C10 (antibody, V domains shown)
VH: QVTLKESGPGILQPSQTLSLTCSFSGFSLSTSAMGIGWIRQPSGKGLEWLAHIWWDDDKRYNPALKSRLTISKDTSRNQVFLKIASVDTADTATYFCARIDGIYDGSFYAMDYWGQGTSVTVSS
VL: DIVLTQSPASLAVSLGQRATISCRASESVDSYGNSFMHWYQQKPGQPPKLLIYRASNLESGIPARFSGSGSRTDFTLTINPVEADDVANYYCQQSNEDYTFGGGTKLEIK
notes: murine hybridoma-derived anti-KLB antibody; also called KLBmAb3
B2: 6C1 (antibody, V domains shown)
VH: QVQLQQSGDELMKPGASVKISCKVTGNTFSSYWIEWVKQRPGHGLEWIGEILPGSDSTKYVEKFKVKATFTADTSSNTAYMQLSSLTSEDSAVYYCARGGYHYPGWLVYWGQGTLVTVSA
VL: DIVMTQSQKFMSTSVGDRVSVTCKASQNVDSYVAWYQQKAGQSPKPLIYSASYRFSGVPDRFTGSGSGTEFTLTISNVQSEDLAEYFCQQYNISPYTFGGGTKLEIK
notes: murine hybridoma-derived anti-KLB antibody; also called KLBmAb4
B3: 11D4 (antibody, V domains shown)
VH: QVQVKESGPGLVAPSQSLSITCTVSGFSLTNYGVSWIRQPPGKGLEWLGVIWGDGSINYHSALISRLTITKDNSKSQVFLKLNSLEADDTATYYCAKTHDWFDYWGQGTLVTVSA
VL: DIQMTQTPSSLSASLGDRVTINCRASQDISNYFNWYQQKPNGTIKLLIYYTSRLQSGVPSRFSGSGSGTDYSLTISNLEQEDKATYFCHQVRTLPWTFGGGTKLEIK
notes: murine hybridoma-derived anti-KLB antibody; also called KLBmAb5

Molecular target: T1, rat KLB (+N-ter FLAG) (rat, UniProt Q99N32 53-989 (mouse entry))
T1 construct: expressed from KLB cDNA on HEK293T cells and read by FACS
T1 chain: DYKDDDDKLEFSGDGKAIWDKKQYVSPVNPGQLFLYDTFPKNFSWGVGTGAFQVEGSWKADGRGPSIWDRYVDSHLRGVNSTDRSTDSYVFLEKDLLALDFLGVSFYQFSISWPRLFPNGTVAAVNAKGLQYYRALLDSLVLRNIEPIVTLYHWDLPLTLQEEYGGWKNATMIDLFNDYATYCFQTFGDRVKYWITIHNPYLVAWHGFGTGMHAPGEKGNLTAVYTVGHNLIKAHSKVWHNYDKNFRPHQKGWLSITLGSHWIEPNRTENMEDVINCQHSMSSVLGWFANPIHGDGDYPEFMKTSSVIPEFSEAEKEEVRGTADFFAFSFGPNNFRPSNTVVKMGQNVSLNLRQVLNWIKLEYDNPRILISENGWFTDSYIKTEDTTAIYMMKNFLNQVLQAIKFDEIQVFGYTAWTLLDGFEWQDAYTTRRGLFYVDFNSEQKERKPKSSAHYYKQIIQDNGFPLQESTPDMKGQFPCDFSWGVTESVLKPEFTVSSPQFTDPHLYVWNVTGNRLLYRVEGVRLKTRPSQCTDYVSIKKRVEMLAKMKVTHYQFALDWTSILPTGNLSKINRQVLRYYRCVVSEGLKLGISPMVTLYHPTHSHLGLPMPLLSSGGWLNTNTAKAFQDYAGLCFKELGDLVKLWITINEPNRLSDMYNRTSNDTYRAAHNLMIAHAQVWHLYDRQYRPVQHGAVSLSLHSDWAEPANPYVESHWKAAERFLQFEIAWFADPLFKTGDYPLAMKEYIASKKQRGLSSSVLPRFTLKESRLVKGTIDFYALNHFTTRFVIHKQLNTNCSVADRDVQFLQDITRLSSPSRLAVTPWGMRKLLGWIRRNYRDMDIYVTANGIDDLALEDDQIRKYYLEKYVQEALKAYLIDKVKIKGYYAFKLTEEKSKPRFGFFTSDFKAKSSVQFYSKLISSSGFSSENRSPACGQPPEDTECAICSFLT
Experiment: FACS on transfected HEK293T cells
Method: (§1) Species cross reactivity of the disclosed anti-KLB antibodies were analyzed by FACS analysis using KLB cDNA from mouse, rat, rabbit, cynomolgus monkey and rhesus monkey cloned into pRK mammalian expression vectors transiently transfected into HEK293T cells. The KLB extracellular domain polypeptide sequences that were expressed are as follows: […]

Does B1 bind?
Result: no binding

Does B2 bind?
Result: no binding

Does B3 bind?
Result: no binding

Molecular target: T2, cynomolgus monkey KLB (+N-ter FLAG) (cynomolgus monkey, UniProt Q86Z14 53-991 (human entry))
T2 construct: expressed from KLB cDNA on HEK293T cells and read by FACS; also called Cyno KLB
T2 chain: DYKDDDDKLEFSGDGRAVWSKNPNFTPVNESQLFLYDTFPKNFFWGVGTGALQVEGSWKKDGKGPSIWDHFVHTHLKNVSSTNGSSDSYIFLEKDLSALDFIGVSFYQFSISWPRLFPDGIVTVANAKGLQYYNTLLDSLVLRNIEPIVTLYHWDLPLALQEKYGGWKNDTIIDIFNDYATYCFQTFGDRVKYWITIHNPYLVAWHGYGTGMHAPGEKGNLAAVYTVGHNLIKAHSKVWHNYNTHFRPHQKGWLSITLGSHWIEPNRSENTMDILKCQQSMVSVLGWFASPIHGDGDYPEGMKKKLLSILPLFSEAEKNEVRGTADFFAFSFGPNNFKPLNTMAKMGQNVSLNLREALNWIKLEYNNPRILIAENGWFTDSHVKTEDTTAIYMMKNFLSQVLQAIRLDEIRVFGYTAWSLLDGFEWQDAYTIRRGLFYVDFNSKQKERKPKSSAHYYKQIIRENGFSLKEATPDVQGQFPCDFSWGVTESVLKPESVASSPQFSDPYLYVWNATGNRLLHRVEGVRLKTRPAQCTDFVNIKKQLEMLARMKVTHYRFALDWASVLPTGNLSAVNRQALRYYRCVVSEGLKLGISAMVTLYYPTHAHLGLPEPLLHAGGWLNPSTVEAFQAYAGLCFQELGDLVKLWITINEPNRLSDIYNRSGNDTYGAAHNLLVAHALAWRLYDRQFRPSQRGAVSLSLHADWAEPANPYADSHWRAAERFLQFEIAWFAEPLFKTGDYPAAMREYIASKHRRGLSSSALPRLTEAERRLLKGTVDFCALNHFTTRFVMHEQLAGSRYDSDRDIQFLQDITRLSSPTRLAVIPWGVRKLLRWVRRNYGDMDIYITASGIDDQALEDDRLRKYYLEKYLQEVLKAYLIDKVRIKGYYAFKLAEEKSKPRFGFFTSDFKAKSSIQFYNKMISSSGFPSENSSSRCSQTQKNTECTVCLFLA
Experiment: FACS on transfected HEK293T cells
Method: as §1

Does B1 bind?
Result: binds

Does B2 bind?
Result: binds

Does B3 bind?
Result: binds

Molecular target: T3, human KLB expressed on cells (human, UniProt Q86Z14 53-1044)
T3 construct: on transfected 293 / HEK293 cells; also called hKLB; beta-Klotho
Experiment: FACS on 293 cells expressing hKLB, antibody at 0.8 µg/ml, median shift

Does B1 bind?
Result: binds

Does B2 bind?
Result: binds

Does B3 bind?
Result: binds
